Assay [1] concerns the target human CD151 protein (human) (UniProt P48509). Kind of assay: flow cytometry on BxPC3 cells, antibody at 10 ug/ml. A general note: Flow cytometry measures light scatter and fluorescence of single cells or particles in a stream.
The target is the same in assay [2]. Kind of assay: flow cytometry on PC3 cells, undiluted hybridoma supernatant.
For assay [3] the target is unchanged. Kind of assay: flow cytometry on NIH3T3-CD151 cells, antibody at 10 ug/ml.
The target is the same in assay [4]. Put plainly: flow cytometry on DU145 cells, antibody at 10 ug/ml.
Assay [5] shares this target. Put plainly: flow cytometry on A549 cells, antibody at 10 ug/ml.
Assay [6] has as its target T1, recombinant large extracellular loop EC2 of human CD151 (human, UniProt P48509 113-221, limits assumed).
T1 construct: also called recombinant EC2 loop; extracellular loop 2
T1 sequence (looked up): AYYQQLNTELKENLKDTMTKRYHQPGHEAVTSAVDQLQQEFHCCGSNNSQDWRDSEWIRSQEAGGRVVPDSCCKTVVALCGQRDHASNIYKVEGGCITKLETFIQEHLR
Put plainly: competition ELISA on recombinant EC2; competitor murine 203B6 at 80 ng/ml, detected with anti-mouse IgG. The method, then:
(§1) Cross-competition experiments were further performed by ELISA to evaluate the ability of the chimeric antibodies c214B2[IgG1] and c203B6[IgG1] to inhibit the binding of their corresponding murine forms to the recombinant EC2 loop. Briefly, 96-well ELISA plates were coated with recombinant EC2 at 5 μg/ml in PBS overnight at 4° C. Murine Mabs 203B6 and 214B2 at 80 ng/ml were further incubated in the absence or in the presence of increasing concentrations of their corresponding chimeric antibody forms, ranging from 0.01 to 20 μg/ml, for 1 h at 37° C. For control experiments, no murine antibody was added. Horseradish peroxidase-conjugated polyclonal goat anti-mouse IgG was added at a 1/5000 dilution in PBS and incubated for 1 h at 37° C. After incubation with the peroxidase substrate TMB for 10 min at room temperature, the reaction was stopped with 1 M sulfuric acid and the optical density at 450 nm was measured. […] IC₅₀ values, calculated by using the GraphPad Prism software, were 0.69 μg/ml and 0.71 μg/ml for c214B2[IgG1] and c203B6[IgG1], respectively.
(In general: An ELISA detects its analyte on a solid surface through an enzyme-linked reagent.)

The target of assay [7] is human CD151 protein (human) (UniProt P48509). Put plainly: flow cytometry on PC3 cells.
Assay [8] addresses T1, recombinant large extracellular loop …. Put plainly: cross-blocking ELISA on recombinant EC2; competitor murine 214B2. As for the experimental part: FIG. 18 illustrates the Cross blocking of the murine antibody […] by the chimeric […] and different variants of the humanized 214B2. The activity of the humanized variants of 214B2 (hz214B2) to cross block the parental antibody m214B2 was evaluated by ELISA using the recombinant extracellular loop 2 (EC2) of human antigen CD151. The activity of the humanized variants was compared to the chimeric 214B2.
The affinity of the humanized variants to the epitope of the parental antibody was evaluated by cross blocking the parental antibody with the humanized antibody. The parental antibody concentration was kept constant and the humanized antibody serial diluted. The chimeric antibody served as a positive control and as a reference in these experiments. The humanized antibodies were evaluated by there affinity in ELISA and flow cytometry assays. In the ELISA based assay the second extracellular domain (EC2) of the human CD151 was expressed recombinantly and purified by the six histidine tag. Purified EC2 protein was used to coated ELISA plates and binding of humanized anti-CD151 antibodies was measured indirectly by detecting the murine parental antibody with HRP conjugated anti-mouse IgG antibodies. Binding to CD151 of humanized anti-CD151 antibodies was evaluated by flow cytometry using the human prostate cancer cell line PC3. The affinity was determined by cross blocking the biotinylated parental murine anti-CD151 antibody. The biotinylated antibody was detected using fluorescein conjugated streptavidin. Affinity constant (Kd) was measured by BIACore analysis.

For assay [9] the target is unchanged. Kind of assay: competition ELISA on recombinant EC2; competitor murine 214B2 at 80 ng/ml, detected with anti-mouse IgG. As for the experimental part: as §1

human CD151 protein (human), sequence (P48509 whole entry): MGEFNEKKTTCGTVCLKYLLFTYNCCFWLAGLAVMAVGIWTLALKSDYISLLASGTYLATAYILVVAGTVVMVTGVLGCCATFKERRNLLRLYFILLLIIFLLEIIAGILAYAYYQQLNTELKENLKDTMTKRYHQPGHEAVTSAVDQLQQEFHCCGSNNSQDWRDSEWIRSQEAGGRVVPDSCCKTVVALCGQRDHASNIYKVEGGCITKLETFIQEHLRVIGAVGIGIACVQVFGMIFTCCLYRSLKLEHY

B1: murine antibody 203B6 (antibody, mouse IgG1, V domains shown)
VH: EVKLVESGGGLVQPGGSLKLSCAASGFTFSTYTMSWVRQTPEKRLEWVAYISSGGGTTYYPDTVKGRFTISRDNARNTLYLQMNSLKSEDTAMYYCATPRIGTGFAYWGQGTLVTVSA
VL: DIVLSQSPASLALSLGQRATISCRASASVEYYGTSLMHWYQQKPGQPPKLLIYEASNVESGVPARFSGSGSGTDFSLNIHPVEEDDLAIYFCQQSRKAPYTFGGGTKLEIK
As to B1, the MFI in assay [1] came out at 768; in [2], 975; in assay [3] it was 540; in [4] it was 860; in assay [5] it was 675.

B2: chimeric antibody c203B6[IgG1] (antibody, V domains shown)
VH: EVKLVESGGGLVQPGGSLKLSCAASGFTFSTYTMSWVRQTPEKRLEWVAYISSGGGTTYYPDTVKGRFTISRDNARNTLYLQMNSLKSEDTAMYYCATPRIGTGFAYWGQGTLVTVSA
VL: DIVLSQSPASLALSLGQRATISCRASASVEYYGTSLMHWYQQKPGQPPKLLIYEASNVESGVPARFSGSGSGTDFSLNIHPVEEDDLAIYFCQQSRKAPYTFGGGTKLEIKR
notes: Mouse variable domains fused to human IgG1 / Ckappa constant domains
B2: in [6], the 50% inhibitory concentration (IC50) came to 0.71 µg/mL. The molecule also displayed an antibody concentration at which the binding plateau was reached in assay [7] of 5 µg/mL.

B3: humanized antibody Hz214B2VLVar2VHVar3 (G1) (antibody, human IgG1, kappa, V domains shown)
VH: QVQLVQSGAEVKKPGASVKLSCKASGYTFTSSSMHWVRQAPGQGLEWMGEIHPNSGNTNNAQKFQGRATLTVDTSISTAYVELSRLRSDDTAVYYCARARSFYYAMDCWGQGTSVTVSS
VL: NIQMTQSPSSLSASVGDRVTITCRASENVGTYVNWYQQKPGKAPKLLIYGASNLQSGVPSRFSGSGSATDFTLTISSLQPEDFATYYCGQTYSFPYTFGQGTKLEIKR
notes: also called VH Var3 with VL Var2
For the molecule B3, the binding result in [8] is on record as “binds”.

B4: humanized antibody Hz214B2VLVar3VHVar3 (G1) (antibody, human IgG1, kappa, V domains shown)
VH: QVQLVQSGAEVKKPGASVKLSCKASGYTFTSSSMHWVRQAPGQGLEWMGEIHPNSGNTNNAQKFQGRATLTVDTSISTAYVELSRLRSDDTAVYYCARARSFYYAMDCWGQGTSVTVSS
VL: NIVMTQSPSSLSASVGDRVTITCKASENVGTYVSWYQQKPGKAPKLLIYGASNLYSGVPSRFSGSGSATDFTLTISSLQPEDFATYHCGQTYSFPYTFGQGTKLEIKR
notes: also called Hz214B2VHVar3VLVar3; Hz214B2VHVar3VLVar3 (G1)
B4: the binding result in assay [8] is “binds”.

B5: humanized 214B2, VL Var1 with VH Var3 (IgG1) (antibody, V domains shown)
VH: QVQLVQSGAEVKKPGASVKLSCKASGYTFTSSSMHWVRQAPGQGLEWMGEIHPNSGNTNNAQKFQGRATLTVDTSISTAYVELSRLRSDDTAVYYCARARSFYYAMDCWGQGTSVTVSS
VL: DIQMTQSPSSLSASVGDRVTITCRASENVGTYLNWYQQKPGKAPKLLIYGASSLQSGVPSRFSGSGSGTDFTLTISSLQPEDFATYYCGQTYSFPYTFGQGTKLEIKR
notes: also called Hz214B2VLVar1 with Hz214B2VHVar3 (G1)
As for B5, the binding result in [8] is reported as “binds”.

B6: humanized antibody Hz214B2VLVar4VHVar4 (G1) (antibody, human IgG1, kappa, V domains shown)
VH: QVQLVQSGAEVKKPGASVKLSCKASGYTFTSSSMHWVRQAPGQGLEWMGEIHPNSGNTNNNEKFKGRATLTVDTSISTAYVELSRLRSDDTAVYYCARARSFYYAMDCWGQGTSVTVSS
VL: NIVMTQSPSSLSASVGDRVTITCKASENVGTYVSWYQQKPGKAPKLLIYGASNRYTGVPSRFSGSGSATDFTLTISSLQPEDFATYHCGQTYSFPYTFGQGTKLEIKR
notes: also called Hz214B2VHVar4VLVar4; Hz214B2VHVar4VLVar4 (G1)
Take B6: in assay [8], the binding result was “binds”.

B7: humanized 214B2, VL Var1 with VH Var2 (IgG1) (antibody, V domains shown)
VH: QVQLVQSGAEVKKPGASVKVSCKASGYTFTSSSMHWVRQAPGQGLEWMGEIHPNSGNTNNAQKFQGRVTLTVDTSISTAYMELSRLRSDDTAVYYCARARSFYYAMDCWGQGTSVTVSS
VL: DIQMTQSPSSLSASVGDRVTITCRASENVGTYLNWYQQKPGKAPKLLIYGASSLQSGVPSRFSGSGSGTDFTLTISSLQPEDFATYYCGQTYSFPYTFGQGTKLEIKR
notes: also called Hz214B2VLVar1 with Hz214B2VHVar2 (G1)
In the case of B7, the binding result in assay [8] is on record as “binds”.

B8: humanized antibody Hz214B2VLVar3VHVar2 (G1) (antibody, human IgG1, kappa, V domains shown)
VH: QVQLVQSGAEVKKPGASVKVSCKASGYTFTSSSMHWVRQAPGQGLEWMGEIHPNSGNTNNAQKFQGRVTLTVDTSISTAYMELSRLRSDDTAVYYCARARSFYYAMDCWGQGTSVTVSS
VL: NIVMTQSPSSLSASVGDRVTITCKASENVGTYVSWYQQKPGKAPKLLIYGASNLYSGVPSRFSGSGSATDFTLTISSLQPEDFATYHCGQTYSFPYTFGQGTKLEIKR
notes: also called VH Var2 with VL Var3
B8: in assay [8], the binding result was “binds”.

B9: humanized antibody Hz214B2VLVar2VHVar2 (G1) (antibody, human IgG1, kappa, V domains shown)
VH: QVQLVQSGAEVKKPGASVKVSCKASGYTFTSSSMHWVRQAPGQGLEWMGEIHPNSGNTNNAQKFQGRVTLTVDTSISTAYMELSRLRSDDTAVYYCARARSFYYAMDCWGQGTSVTVSS
VL: NIQMTQSPSSLSASVGDRVTITCRASENVGTYVNWYQQKPGKAPKLLIYGASNLQSGVPSRFSGSGSATDFTLTISSLQPEDFATYYCGQTYSFPYTFGQGTKLEIKR
notes: also called VH Var2 with VL Var2
Consider B9, for which the binding result in assay [8] is reported as “binds”.

B10: murine antibody 214B2 (antibody, mouse IgG1, V domains shown)
VH: QVQLQQPGSVLVRPGASVKLSCKASGYTFTSSSMHWAKQRPGQGLEWIGEIHPNSGNTNNNEKFKGKATLTVDTSSSTAYVDLSSLSSEDSAVYYCARARSFYYAMDCWGQGTSVTVSS
VL: NIVMTQSPKSMSMSVGERVTLSCKASENVGTYVSWYQQKPEQSPKLLIYGASNRYTGVPDRFTGSGSATDFTLTISSVQAEDLADYHCGQTYSFPYTFGGGTKLEIK
In the case of B10, the MFI in [1] came out at 849; in assay [2], 1000; in [3] it was 748; in [4], 1330; in assay [5], 820.

B11: chimeric antibody c214B2[IgG1] (antibody, V domains shown)
VH: QVQLQQPGSVLVRPGASVKLSCKASGYTFTSSSMHWAKQRPGQGLEWIGEIHPNSGNTNNNEKFKGKATLTVDTSSSTAYVDLSSLSSEDSAVYYCARARSFYYAMDCWGQGTSVTVSS
VL: NIVMTQSPKSMSMSVGERVTLSCKASENVGTYVSWYQQKPEQSPKLLIYGASNRYTGVPDRFTGSGSATDFTLTISSVQAEDLADYHCGQTYSFPYTFGGGTKLEIKR
notes: Mouse variable domains fused to human IgG1 / Ckappa constant domains; also called chimeric 214B2; chimeric 241B2
On to B11, for which, in assay [9], the IC50 came to 0.69 µg/mL. Moreover, the antibody concentration at which the binding plateau was reached in assay [7] is 2.5 µg/mL.

The term IC50 denotes the concentration at which inhibition is half-maximal.

Source of the values: US20120275997A1 (published 2012).
